{"source": "patent US9492501B2", "about": "“Antiviral agent” (priority 2009, dated 2016)", "key": {"[1]": {"system": "Peripheral Blood Lymphocyte (PBL) cells", "test": "Cell toxicity by MTT method, peripheral blood lymphocytes", "type": "cell-based", "details": "FIG. 11", "experimental": "(§1) After culture for 24 hours, the toxicity of the protein is evaluated by measuring the number of living cells by the MTT method (3-(4,5-dimethylthiazol-2-yl)-2,5-diphenyl tetrazolium bromide) as described in Berridge et al. Biotechnology Annual Review, 2005, 11, 127-152.\nSimilar experiments were carried out on primary lymphocytes. Conditions similar to those used for the 1g5 cells were used.\n(§2) The PBL cells were treated with 0.24 μg/mL, 0.48 μg/mL, 0.96 μg/mL, 2.4 μg/mL, 4.8 μg/mL, 9.6 μg/mL, or 24 μg/mL of HPBP protein. Untreated cells were tested as a control."}, "Cell Line R3HR-1G5 (1g5)": {"system": "Cell Line R3HR-1G5 (1g5)", "test": "Cell toxicity by MTT method, cell line R3HR-1G5 (1g5)", "type": "cell-based", "details": "1g5 cells, culture 24 hours, FIG. 10", "experimental": "The cell toxicity of the HPBP protein was measured on cells in culture.\n5.10^6 cells/mL of the lymphoid line B 1g5 were seeded on plates and treated, or not treated, with different doses of purified HPBP protein: 0.2 μg/mL, 2 μg/mL, 20 μg/mL, or 90 μg/mL.\nThe cells are cultured for 24 hours at 37° C.\nas §1\nBriefly, 10 μL of MTT is added to each culture.\nThe mixture is added quickly over 1 minute, then the cultures are returned to 37° C. for 4 hours.\nThe culture supernatant is then aspirated, and the crystals formed by the presence of MTT are dissolved with acetic acid.\nThe optical density (OD) of each of the cultures is measured at 570 nm using a spectrophotometer."}, "GST-Tat protein": {"molecular_target": "T1, GST-Tat protein (Human immunodeficiency virus type 1 group M subtype B, UniProt P04608)", "T1 construct": "made in house", "T1 sequence (P04608 whole entry)": "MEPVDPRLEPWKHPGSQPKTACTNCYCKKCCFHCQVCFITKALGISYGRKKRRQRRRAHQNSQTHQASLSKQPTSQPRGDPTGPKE", "test": "ELISA of in vitro interaction of HPBP and Tat proteins", "type": "binding, HIV-1", "details": "GST-Tat adsorbed on plate, pure HPBP 0.1 nM to 100 mM", "experimental": "(§3) The combination of the Human Phosphate Binding Protein (HPBP) with the C/EBPβ protein is carried out using an ELISA technique.\nIn flat-bottom 96-well ELISA plates having a high protein-binding affinity the GST-Tat protein is adsorbed on the support and incubated overnight at 4° C.\n(§4) The proteins not bound to the plate are removed by washing with a Phosphate Buffered Saline (PBS) buffer containing 10 mg/mL of Bovine Serum Albumin (BSA).\nThe wells are saturated with a Phosphate Buffered Saline (PBS) buffer solution containing 20 mg/mL of Bovine Serum Albumin (BSA) for 1 hour at room temperature in order to eliminate the background noise. […]\n(§5) Then after a last washing, the plate is incubated with an HRP substrate (3,3′,5,5′-tetramethylbenzidine: TNB in the presence of hydrogen peroxide H2O2). […] The optical density of the product of the reaction is then measured with a spectrophotometer at 450 nm.\nThe inventors used the Enzyme Linked Immunosorbent Assay (ELISA) technique, suited to studying the interaction between the HPBP protein and the HIV-1 (TAT) protein (Engvall and Perlmann, 1971)). The HIV-1 TAT protein was expressed in the form of a fusion with GST in order to obtain the soluble protein and in quantity (approximately 2 mg/mL). […]"}, "[2]": {"system": "HIV-1 (proviral genome NL4.3, strain LAI)", "test": "HIV-1 replication, ELISA of viral p24 capsid protein in supernatant of infected Jurkat 1G5 cells", "type": "cell-based", "details": "treatment 24 hours", "description": "(§6) Method: a Jurkat CD4+ T lymphocyte cell line (line 1G5) having integrated into its genome a construction comprising a luciferase reporter gene the expression of which is controlled by the HIV-1 promoter (HIV-1 LTR; HIV-LTR Jurkat line) was used. The measurement of luciferase activity from the cell extracts therefore makes it possible to estimate the HIV-1 transcriptional activity.\n(§7) The Jurkat HIV-LTR and Jurkat 1G5 lines were transfected by means of the DEAE-dextran technique with the proviral genome NL4.3 (complete HIV-1 genome, strain LAI).\n(§8) The HIV-LTR Jurkat and 1G5 Jurkat lines thus infected, are treated 24 hours later with HPBP/PON protein complexes or with purified PON or HPBP proteins at a final concentration of 2 μg/mL of medium (52 nM of protein alone).\n(§9) The cells and the cell supernatant are sampled after treatment for 24 hours.\nThe transcriptional activity is measured by carrying out a luciferase test. The intensity of the HIV-1 replication is measured by means of ELISA assay of the quantity of viral p24 capsid proteins present in the supernatant of the cell cultures of the infected 1G5 lines [Rohr, O., et al. (2000). The Journal of Biological Chemistry 275, 2654-2660]. […]\n(§10) The transcriptional activity and inhibition of the replication are measured as described in Example 6."}, "Microglial cell line": {"system": "Microglial cell line", "test": "Cell toxicity by MTT method, microglial cell line", "type": "cell-based", "details": "for LD50: microglial line, MTT", "experimental": "as §1\nSimilar experiments were carried out on microglial lines. Conditions similar to those used for the 1g5 cells were used, with 5.10^5 cells/mL.\nas §2\nThe cell toxicity of St. John's wort protein p27^SJ was measured on cells in culture under the conditions described in Example 15. The p27^SJ was tested at doses of 0 μg/mL (control), 0.01 μg/mL, 0.1 μg/mL, 0.5 μg/mL, 1 μg/mL, 5 μg/mL, 10 μg/mL, 20 μg/mL and 40 μg/mL."}, "[3]": {"system": "HIV-1 promoter (HIV-1 LTR)", "test": "HIV-1 transcriptional activity, luciferase test in HIV-LTR Jurkat line", "type": "cell-based", "details": "treatment 24 hours", "description": "as §6, §7, §8, §9\nThe transcriptional activity is measured by carrying out a luciferase test. The intensity of the HIV-1 replication is measured by means of ELISA assay of the quantity of viral p24 capsid proteins present in the supernatant of the cell cultures of the infected 1G5 lines [Rohr, O., et al. (2000). The Journal of Biological Chemistry 275, 2654-2660].\nAn untreated negative control as well as a positive control treated with AZT at a final concentration of 10 μM were carried out in parallel. Each experiment is carried out in triplicate.\nIn parallel, the infected lymphocyte lines obtained were treated with 10 μg of potato DING protein.\nas §6, with “Measurement” for “The measurement”, “activity. […]” for “activity.”\nas §10"}, "C/EBPβ protein": {"molecular_target": "C/EBPβ protein (Homo sapiens, UniProt P17676)", "sequence (P17676 whole entry, species assumed)": "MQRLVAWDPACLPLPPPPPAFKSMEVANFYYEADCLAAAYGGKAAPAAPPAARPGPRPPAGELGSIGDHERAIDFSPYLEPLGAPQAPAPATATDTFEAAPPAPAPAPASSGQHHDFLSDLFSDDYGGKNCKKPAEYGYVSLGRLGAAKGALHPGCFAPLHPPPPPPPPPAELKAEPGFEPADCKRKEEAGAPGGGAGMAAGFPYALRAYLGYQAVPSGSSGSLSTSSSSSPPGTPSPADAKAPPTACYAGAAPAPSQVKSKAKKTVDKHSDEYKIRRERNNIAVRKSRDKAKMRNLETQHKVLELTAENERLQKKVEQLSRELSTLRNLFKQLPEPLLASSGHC", "test": "ELISA of in vitro interaction of HPBP and C/EBPβ proteins", "type": "binding", "details": "C/EBPβ adsorbed on plate, pure HPBP 0.1 nM to 100 mM", "experimental": "as §3\nIn ELISA flat-bottom 96-well plates having a high binding affinity for proteins, the C/EBPβ protein is adsorbed on the support and incubated overnight at 4° C.\nas §4\nThe wells are saturated with a Phosphate Buffered Saline (PBS) buffer solution containing 20 mg/mL of Bovine Serum Albumin (BSA) for 1 hour at room temperature in order to remove the background noise.\nAfter washing with a Phosphate Buffered Saline (PBS) solution containing 10 mg/mL of Bovine Serum Albumin (BSA), different solutions of pure HPBP from 0.1 nM to 100 mM are added to the wells for incubation for 1-3 hours at RT.\nThe plate is once again washed then incubated with mouse monoclonal anti-HPBP antibodies or rabbit polyclonal anti-HPBP antibodies for incubation for 1-3 hours at RT. […]\nas §5"}}, "data": [{"molecule": "HPBP: human phosphate binding protein, plasma DING protein of 38 kDa, SEQ ID NO: 2, purified from human plasma (protein, listed as Homo sapiens) DINGGGATLPQKLYLTPDVLTAGFAPYIGVGSGKGKIAFLENKYNQFGTDTTKNVHWAGSDSKLTATELATYAADKEPGWGKLIQVPSVATSVAIPFRKAGANAVDLSVKELCGVFSGRIADWSGITGAGRSGPIQVVYRAESSGTTELFTRFLNAKCTTQPGTFAVTTVFANSYSLGLSPLAGAVAAIGSVGVMAADNDVTTAQGRITYISPDFAAPTLAGLDDATKVARTGKGSSSGGGAEGKSPAAANVSAAISVVPLPAAADRGDPNVWTPVFGAVTGGGVVAYPDSGYPILGFTDLIFSECYANATQTGQVRNFFTKHYGTSANDNAAIQANAFVPLPSNWKAAVRASYLTASNALSIGDSAVCGGKGRPE", "values": [{"measurement": "LD50", "setting": "[1]", "value": "approximately 5 μg/mL"}, {"measurement": "lethal dose 50% (LD50, dose killing half of the cells)", "setting": "Cell Line R3HR-1G5 (1g5)", "value": "approximately 20 μg/mL"}, {"measurement": "interaction of HPBP protein and Tat protein in vitro", "setting": "GST-Tat protein", "value": "capable of interacting in vitro"}, {"measurement": "inhibition of HIV-1 replication", "setting": "[2]; 2 μg/mL (52 nM), p24 in supernatant, CD4+ T lymphocytes (Jurkat 1G5)", "value": 89, "unit": "%"}, {"measurement": "LD50", "setting": "Microglial cell line; FIG. 12", "value": "approximately 2.5 μg/mL"}, {"measurement": "transcriptional activity repressed", "setting": "[3]; 2 μg/mL (52 nM), luciferase, FIG. 3", "value": 80, "unit": "%"}, {"measurement": "inhibits the viral replication by a factor (FIG. 5)", "setting": "[3]; HPBP 2 μg/mL, FIG. 5 (luciferase activity)", "value": "> 6"}, {"measurement": "interaction of HPBP protein and C/EBPβ protein in vitro", "setting": "C/EBPβ protein", "value": "capable of interacting in vitro"}]}, {"molecule": "PON-1: human paraoxonase (PON1), co-purified with HPBP from plasma and separated on hydroxyapatite (protein) AKLIALTLLGMGLALFRNHQSSYQTRLNALREVQPVELPNCNLVKGIETGSEDLEILPNGLAFISSGLKYPGIKSFNPNSPGKILLMDLNEEDPTVLELGITGSKFDVSSFNPHGISTFTDEDNAMYLLVVNHPDAKSTVELFKFQEEEKSLLHLKTIRHKLLPNLNDIVAVGPEHFYGTNDHYFLDPYLQSWEMYLGLAWSYVVYYSPSEVRVVAEGFDFANGINISPDGKYVYIAELLAHKIHVYEKHANWTLTPLKSLDFNTLVDNISVDPETGDLWVGCHPNGMKIFFYDSENPPASEVLRIQNILTEEPKVTQVYAENGTVLQGSTVASVYKGKLLIGTVFHKALYCEL", "values": [{"measurement": "repressive effect on HIV-1 replication (in words)", "setting": "[2]; 2 μg/mL, p24, FIG. 4", "value": "no repressive effect"}, {"measurement": "inhibiting effect on transcriptional activity (in words)", "setting": "[3]; 2 μg/mL, luciferase, FIG. 3", "value": "does not have such an inhibiting effect"}]}, {"molecule": "p27^SJ: St. John's wort protein, SEQ ID NO: 4, 71% sequence homology with SEQ ID NO: 1, excluded from the invention (protein, listed as Hypericum perforatum) MADINGGGATLPQALYQTSGVLTAGFAPYIGVGSGNGKAAFLNNDYTKFQAGVTNKNVHWAGSDSKLSATELSTYASAKQPTWGKLIQVPSVGTAVAIPFNKSGTAAVDLSVSELCGVFSGRITDWSGISGSGRTGAITVVYRSESSGTTELFTRFLNAKCAETGTFNISTTFGTSYTGGLPAGAVSAAGSQGVMTALAGADGGTTYMSPDFAAPTLAGLDDATKVARVGKDVATNTAGVSPAAANVSAAINAVPVPASTEKP", "values": [{"measurement": "cell toxicity (in words)", "setting": "Microglial cell line; conditions of Example 15, FIG. 12", "value": "toxicity very clearly less than that of the HPBP protein"}, {"measurement": "cells dead", "setting": "Microglial cell line; dose of 40 μg/mL, FIG. 12", "value": "approximately 4%"}, {"measurement": "LD50", "setting": "Microglial cell line; FIG. 12", "value": "greater than 2.5 μg/mL"}]}]}
